The text below walks through data of PMC10995120.

This test deals with GFP-CD16a (Homo sapiens) (UniProt P08637). The test can be described thus: SPR.
UniProt P08637, sequence (P08637 other isoform, or with tags, fused parts or gaps): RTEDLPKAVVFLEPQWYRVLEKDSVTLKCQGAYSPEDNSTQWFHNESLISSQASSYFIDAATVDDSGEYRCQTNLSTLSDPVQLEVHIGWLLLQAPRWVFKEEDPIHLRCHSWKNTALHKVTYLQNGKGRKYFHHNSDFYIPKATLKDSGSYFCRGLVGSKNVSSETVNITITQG

rituximab displayed a Kd of 0.36 µM.
